Test results published in US20260042862A1 (AGENCY FOR SCIENCE TECHNOLOGY AND RESEARCH, published 2026).
Substitutions are numbered along the chain they refer to.

B1: anti-GPC-3 IgG1 clone 2F1 (antibody, V domains shown)
VH: EVQLVQSGAEVKKPGSSVKVSCKASGGTFSSYAISWVRQAPGQGLEWMGGIIPIFGTANYAQKFQGRVTITADESTSTAYMELSSLRSEDTAVYYCARDSPYYYYMDVWGKGTT
VL: DVVMTQSPLFLPVTLGQPASISCRSSQSLVYSDGNTYLSWFQQRPGQSPRRLVYKVSSRDSGVPDRFSGSGSGTDFTLKISRVEAEDVGVYYCMQGTHWPRTFGQGTK
notes: Tested as IgG1; also called monoclonal antibody 2F1
B2: anti-GPC-3 IgG1 clone 1H1 (antibody, V domains shown)
VH: QVQLQESGAGLLRPSETLSLTCAVYGGSFSGYYWSWIRQPPGKGLEWLGEISHSGSTNYNPSLKSRVTISVDTSKNQFSLKLSSVTAADAAVYYCARWVWSGYYNGEGYFDLWGRGTL
VL: ETTLTQSPGTLSLSPGERATLSCRASQSVSSSYLAWYQQKPGQAPRLLIYGASSRATGIPDRFSGRGSGTDFTLTITRLEPEDFAVYYCQYYGSSPRTFGQGTK
notes: Tested as IgG1; also called monoclonal antibody 1H1
B3: anti-GPC-3 IgG1 clone 4A12 (antibody, V domains shown)
VH: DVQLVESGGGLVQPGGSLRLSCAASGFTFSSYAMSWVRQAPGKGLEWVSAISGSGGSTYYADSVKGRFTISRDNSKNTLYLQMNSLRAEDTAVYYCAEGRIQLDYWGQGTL
VL: LPVLTQPPSVSVSPGQTARITCSGYELGDKYAFWYQQKPGQSPVLVIYQDTKRPSGIPERFSGSSSGDTATLIISGTQILDEADYYCQAWDSSTHVVFGGGTK
notes: Tested as IgG1; also called monoclonal antibody 4A12
B4: anti-GPC-3 IgG1 clone 2B5 (antibody, V domains shown)
VH: QVQLQESGGGVVQPGRSLRLSCAASGFTFSSYAMHWVRQAPGKGLEWVAVISYDGSNKYYADSVKGRFTISRDNSKNTLYLQMNSLRAEDTAVYYCAKEGTYYYDSSGYWDYYYGMDVWGQGTT
VL: DVVMTQSPLSLPVTPGEPASISCRSSQSLLDSDGYNFLDWYVQKPGQSPQRLIYLGSIRASGVPDRFSGSGSGTDFTLKISRVEADDVGVYYCMQALQTPWTFGQGTK
notes: Tested as IgG1; also called monoclonal antibody 2B5
B5: anti-GPC-3 IgG1 clone 3D12 (antibody, V domains shown)
VH: EVQLVQSGAEVKKPGSSVKVSCKASGGTFSSYAISWVRQAPGQGLEWMGGIIPIFGTANYAQKFQGRVTITADKSTSTAYMELSSLRSEDTAVYYCARGIAARPSYYYYMDVWGKGTT
VL: not shown
notes: Tested as IgG1; also called monoclonal antibody 3D12
B6: anti-GPC-3 IgG1 clone 1D2 (antibody, V domains shown)
VH: B5 VH with G99E, I100W, A101Q, A102Q, R103Q, P104L, S105V, Y106P, Y107L, Y108G
VL: ETTLTQSPGTLSLSPGERATLSCRASHSVSSNFLAWYQQKPGQAPRLLIYAASSRTTGVPDRFSGSGSGTDFTLTISRLEPEDSAVYYCQQYGYSPLYTFGQGTK
notes: Tested as IgG1; also called monoclonal antibody 1D2
B7: anti-GPC-3 bi-specific T cell-engaging antibody clone 1D2 (bispecific antibody)
VH: B5 VH with G99E, I100W, A101Q, A102Q, R103Q, P104L, S105V, Y106P, Y107L, Y108G
VL: B6 VL
scFv: DVQLVQSGAEVKKPGASVKVSCKASGYTFTRYTMHWVRQAPGQGLEWIGYINPSRGYTNYADSVKGRFTITTDKSTSTAYMELSSLRSEDTATYYCARYYDDHYCLDYWGQGTTVTVSSGEGTSTGSGGSGGSGGADDIVLTQSPATLSLSPGERATLSCRASQSVSYMNWYQQKPGKAPKRWIYDTSKVASGVPARFSGSGSGTDYSLTINSLEAEDAATYYCQQWSSNPLTFGGGTKVEIK
notes: The Fab region of one arm of the IgG is replaced by the anti-CD3 scFv; knob-in-hole and LALA mutations in the Fc; also called 1D2 bi-specific
B8: anti-GPC-3 IgG1 clone 3C6 (antibody, V domains shown)
VH: QVQLQESGGGVVQPGRSLRLSCAASGFTFSSYAMHWVRQAPGKGLEWVAVISYDGSNKYYADSVKGRFTISRDNSKNTLYLQMNSLRAEDTAVYYCAYGRYNWNLYFDYWGQGTL
VL: NFMLTQPHSVSESPGKTVTISCTGSSGSIASNYVQWYQQRPGSVPTTVIYEDNQRPSGVPDRFSGSIDSSSNSASLTISGLKTEDEADYYCQSFDSSNYWVFGGGTK
notes: Tested as IgG1; also called monoclonal antibody 3C6
B9: anti-GPC-3 IgG1 clone 1D3 (antibody, V domains shown)
VH: QVQLVQSGAEVKKPGASVKVSCKASGYTFTGYYMHWVRQAPGQGLEWMGWINPNSGGTNYAQNFQGRVTITRDTSASTAYMELSSLRSEDTAVYYCARGSWQTGSFDIWGQGTT
VL: SYELTQPPSVSGTPGQSVTISCSGSNSNLGSNYVYWYQVVPGTAPKLVIYRNKYRPPGVPDRFSGSKSGTSASLAISGLRSDDEAEYYCSGWDDSLSGRLFGGGTK
notes: Tested as IgG1; also called monoclonal antibody 1D3
B10: anti-GPC-3 IgG1 clone 4G11 (antibody, V domains shown)
VH: QVQLQESGPGLVKPSGTLSLTCAVSGGSISSSNWWSWVRQPPGKGLEWIGEIYHSGSTNYNPSLKSRVTISVDKSKNQFSLKLSSVTAADTAVYYCARDTSGVAFDYWGQGTL
VL: EIVLTQSPGTLSLSPGERATLSCRASQSVSSSYLAWYQQKPGQAPRLLIYGASSRATGIPDRFSGGGSGTDFTLTISRLEPEDSAVYYCQQYDHSPTFGQGTK
notes: Tested as IgG1; also called monoclonal antibody 4G11
B11: anti-GPC-3 IgG1 clone 4A5 (antibody, V domains shown)
VH: EVQLVQSGAEVKKPGASVKVSCKASGYTFTSYGISWVRQAPGQGLEWMGWISAYNGNTNYAQKLQGRVTMTTDTSTSTAYMELRSLRSDDTAVYYCARDGLSSSWFYYYYGMDVWGQGTT
VL: not shown
notes: Tested as IgG1; also called monoclonal antibody 4A5
B12: anti-GPC-3 IgG1 clone 1C4 (antibody, V domains shown)
VH: QVQLVQSGGGLVKPGRSLRLSCTASGFTFGDYAMHWVRQAPGKGLEWVAVISYDGSNKYYADSVKGRFTISRDNSKNTLYLQMNSLRAEDTAVYYCARDYGDYYRPYGMDVWGQGTT
VL: DIQMTQSPSTLSASVGDRVTITCRASQSISKWLAWYQHKPGKAPKVLIYKASTLQSGVPSRFSGSGSGTEFTLTISSLQPEDFATYYCQQLNSYPLTFGGGTK
notes: Tested as IgG1; also called monoclonal antibody 1C4
B13: anti-GPC-3 IgG1 clone 4F9 (antibody, V domains shown)
VH: EVQLVQSGAEVKKPGASVKVSCKASGYTFRNYGISWVRQAPGQGLEWMGWISAYNGNTNYAQKLQGRVTMTTDTSTSTAYMELRSLRSDDTAVYYCARADSSSWYVGTYYYYYGMDVWGQGTT
VL: not shown
notes: Tested as IgG1; also called monoclonal antibody 4F9
B14: anti-GPC-3 IgG1 clone 4H1 (antibody, V domains shown)
VH: EVQLVQSGGGVVQPGRSLRLSCAASGFTFSSYAMHWVRQAPGKGLEWVAVISYDGSNKYYADSVKGRFTISRDNSKNTLYLQMNSLRAEDTAVYYCARAPGLEDYWGQGTL
VL: DIQMTQSPSSLSASVGDRVTITCRASQSISSYLNWYQQKPGTAPKLLIYAASSSLQSGVPSRFSGSGSGTDFALTISSLQPEDFATYYCLQDYNYPLTFGGGTK
notes: Tested as IgG1; also called monoclonal antibody 4H1
B15: anti-GPC-3 IgG1 clone 1F1 (antibody, V domains shown)
VH: QVQLVQSGAEVKKPGASVKVSCKASGYTFTSYGISWVRQAPGQRLEWMGWINAGNGNTKYSQKFQGRVTITRDTSASTAYMELSSLRSEDTAVYYCATVVYWGQGTL
VL: EIVLTQSPLSLPVTPGEPASISCRSSQSLLHSNGYNYLDWYLQKPGQSPQILIYLGSHRASGVPDRFSGSASGTDFTLKISRVEAEDVGVYYCMQALQTPLTFGGGTK
notes: Tested as IgG1; also called monoclonal antibody 1F1
B16: anti-GPC-3 IgG1 clone 3C12 (antibody, V domains shown)
VH: QVTLKESGPTLVKPTQTLTLTCTFSGFSLSTSGVGVGWIRQPPGKALEWLALIYWNDDKRYSPSLKSRLTITKDTSKNQVVLTMTNMDPVDTATYYCAHSRIAARRVLDYWGQGTL
VL: QSVLTQPPSASVAPGKTARITCGGNNIGSKSVHWYQQKPGQSPVLVIYQDTKRPSGIPERFSGSNSGNTATLTISGAQPMDEADYYCQAWYSTIMVFGGGTK
notes: Tested as IgG1; also called monoclonal antibody 3C12

Assays:
[1] = target: T1, recombinant human GPC-3 protein (human, UniProt P51654 25-559, limits assumed); assay: binding ELISA with biotin-hGPC-3, EC50 calculated from the curves of FIG. 1A to 1C
T1 construct: also called glypican-3; recombinant GPC-3 protein

[2] = target: T1, recombinant human GPC-3 protein; assay: SPR, Biacore T200
Experimental: Affinity of 24 anti-GPC-3 IgG₁ antibodies was measured via Surface Plasmon Resonance (SPR) analysis using Biacore™ T200 system and shown in Table E3 (below).

[3] = target: T2, human CD3 on human T cells (human, UniProt P07766 23-207); assay: flow cytometry on human T cells (CD3 Positive), % positive cells
T2 construct: whole, on cells; CD3 is a complex of several chains on T cells; also called CD3^Positive human T cells
Experimental: (§1) The ability of these anti-GPC-3 bi-specific T cell-engaging antibodies to specifically recognize and bind to both GPC-3 and human CD3 molecules on cell surface was measured using HepG2 (GPC-3^Positive), SK-Hep1 (GPC-3^Negative), and human T cells (CD3^Positive) cells.
(§2) Briefly, HepG2 (GPC-3^Positive), SK-Hep1 (GPC-3^Negative) and human T cells (CD3^Positive) were seeded in cell suspension at 100000 per well in 96-well round-bottom plate prior to incubation with different concentrations of anti-GPC-3 bi-specific T cell-engaging antibodies. Binding was measured by flow cytometry using a secondary labelled antibody. In this assay, all 5 anti-GPC-3 bi-specific T-cell engaging antibodies bound strongly to the GPC-3 expressing cell HepG2 (FIG. 8B) as well as human T cells expressing CD3 (FIG. 8D).

[4] = target: T3, human GPC-3 on the surface of HepG2 and Hep3B cells (human, UniProt P51654 25-554); assay: flow cytometry on HepG2 (GPC-3 Positive) cells, % positive cells
T3 construct: whole, on cells; Endogenous GPC-3 of human hepatoma cell lines; also called GPC-3 expressing HepG2 cells; GPC-3^High HepG2
Experimental: as §1, §2

Binder | EC50 [1] [nM] | Kd [2] [nM] | koff [2] [s⁻¹] | kon [2] [M⁻¹ s⁻¹] | EC50 (read off the curve) [3] [nM] | EC50 (read off the curve) [4] [nM]
B1 | 2.61 | 14.7 | 0.00181 | 124000 |  | 
B2 | 5.42 | 33.9 | 0.00596 | 176000 |  | 
B3 | 6.61 | 22.9 | 0.00609 | 266000 |  | 
B4 | 11.9 | 12.4 | 0.0038 | 306000 |  | 
B5 | 45.5 | 32.4 | 0.0035 | 108000 |  | 
B6 | 1.42 | 4.18 | 0.00257 | 615000 |  | 
B7 |  |  |  |  | ~300 | ~70
B8 | 20.9 | 8.18 | 0.000472 | 57700 |  | 
B9 | 1.17 | 17.2 | 0.00293 | 170000 |  | 
B10 | 7.59 | 15.5 | 0.00229 | 147000 |  | 
B11 | 15.6 | 12.5 | 0.000946 | 75700 |  | 
B12 | 1.95 | 14.1 | 0.0134 | 949000 |  | 
B13 | 5.29 | 10.5 | 0.00172 | 164000 |  | 
B14 | 4.1 | 44.2 | 0.0137 | 311000 |  | 
B15 | 10.6 | 13.8 | 0.00552 | 399000 |  | 
B16 | 6.76 | 31.2 | 0.00783 | 251000 |  | 
